{
  "source": "patent EP4442276A1",
  "about": "(INSTITUT PASTEUR, dated 2024)",
  "binders": {"B1": {"name": "Cv2.3132 IgG antibody (antibody, V domains shown)", "VH": "EVQLVESGGGLVKPGGSLRLSCAASGFTFSDYYMSWIRQAPGKGLEWVSYISSSGSVQYYADSVKGRFTISRDNAKNSLYLQMNSLRAEDTAVYYCARYYYDSSGYWKRLDYWGQGTLVTVSS", "VL": "not shown", "notes": "also called anti-HR2 antibody Cv2.3132"}},
  "biological_target": "Spike of SARS-CoV-2 reference D614G strain (hCoV-19/France/GE1973/2020) (SARS-CoV-2, UniProt P0DTC2 14-1273)",
  "assay": "cell-based or functional assay",
  "data": [
    {"binder": "B1", "values": [
      {"measurement": "IC50, S-Fuse neutralization assay", "result": 35.4, "unit": "µg/mL"}
    ]}
  ]
}
